What was measured:
Assay in all cases: cell-based or functional assay
[1] = molecular target: HIV-1 Env of pseudovirus 0815.v3.c3 (HIV-1)
[2] = molecular target: HIV-1 Env of pseudovirus 191084 B7-19 (HIV-1)
[3] = molecular target: HIV-1 Env of pseudovirus 191955_A11 (HIV-1)
[4] = molecular target: HIV-1 Env of pseudovirus 211-9 (HIV-1)
[5] = molecular target: HIV-1 Env of pseudovirus 231966.c02 (HIV-1)
[6] = molecular target: HIV-1 Env of pseudovirus 235-47 (HIV-1)
[7] = molecular target: HIV-1 Env of pseudovirus 263-8 (HIV-1)
[8] = molecular target: HIV-1 Env of pseudovirus 3016.v5.c45 (HIV-1)
[9] = molecular target: HIV-1 Env of pseudovirus 3103.v3.c10 (HIV-1)
[10] = molecular target: HIV-1 Env of pseudovirus 3301.v1.c24 (HIV-1)
[11] = molecular target: HIV-1 Env of pseudovirus 3817.v2.c59 (HIV-1)
[12] = molecular target: HIV-1 Env of pseudovirus 6041.v3.c23 (HIV-1)
[13] = molecular target: HIV-1 Env of pseudovirus 620345.c01 (HIV-1)
[14] = molecular target: HIV-1 Env of pseudovirus 6480.v4.c25 (HIV-1)
[15] = molecular target: HIV-1 Env of pseudovirus 6540.v4.c1 (HIV-1)
[16] = molecular target: HIV-1 Env of pseudovirus 6545.v4.c1 (HIV-1)
[17] = molecular target: HIV-1 Env of pseudovirus 6811.v7.c18 (HIV-1)
[18] = molecular target: HIV-1 Env of pseudovirus 6952.v1.c20 (HIV-1)
[19] = molecular target: HIV-1 Env of pseudovirus 89-F1_2_25 (HIV-1)
[20] = molecular target: HIV-1 Env of pseudovirus 9004SS_A3_4 (HIV-1)
[21] = molecular target: HIV-1 Env of pseudovirus 928-28 (HIV-1)
[22] = molecular target: HIV-1 Env of pseudovirus A07412M1.vrc12 (HIV-1)
[23] = molecular target: HIV-1 Env of pseudovirus BJOX010000.06.2 (HIV-1)
[24] = molecular target: HIV-1 Env of pseudovirus BJOX025000.01.1 (HIV-1)
[25] = molecular target: HIV-1 Env of pseudovirus C1080.c03 (HIV-1)
[26] = molecular target: HIV-1 Env of pseudovirus C3347.c11 (HIV-1)
[27] = molecular target: HIV-1 Env of pseudovirus C4118.c09 (HIV-1)
[28] = molecular target: HIV-1 Env of pseudovirus P0402_c2_11 (HIV-1)
[29] = molecular target: HIV-1 Env of pseudovirus R1166.c01 (HIV-1)
[30] = molecular target: HIV-1 Env of pseudovirus R2184.c04 (HIV-1)
[31] = molecular target: HIV-1 Env of pseudovirus R3265.c06 (HIV-1)
[32] = molecular target: HIV-1 Env of pseudovirus T251-18 (HIV-1)
[33] = molecular target: HIV-1 Env of pseudovirus T255-34 (HIV-1)
[34] = molecular target: HIV-1 Env of pseudovirus T278-50 (HIV-1)
[35] = molecular target: HIV-1 Env of pseudovirus X1193_c1 (HIV-1)
[36] = molecular target: HIV-1 Env of pseudovirus X2088_c9 (HIV-1)
[37] = molecular target: HIV-1 Env of pseudovirus X2131_C1_B5 (HIV-1)

N49P7 (antibody)
IC50 (neutralisation, TZM.bl cells) [1]: 0.016 mg/L
IC80 (neutralisation, TZM.bl cells) [1]: 0.053 mg/L
MPI [1]: 100
IC50 [2]: 0.047 mg/L
IC80 [2]: 0.142 mg/L
MPI [2]: 100
IC50 [3]: 1.81 mg/L
IC80 [3]: 8.87 mg/L
MPI [3]: 99
IC50 [4]: 0.22 mg/L
IC80 [4]: 0.767 mg/L
MPI [4]: 100
IC50 (neutralisation, TZM.bl cells) [5]: 0.102 mg/L
IC80 (neutralisation, TZM.bl cells) [5]: 0.43 mg/L
MPI [5]: 100
IC50 [6]: 0.045 mg/L
IC80 [6]: 0.3 mg/L
MPI [6]: 99
IC50 [7]: 0.056 mg/L
IC80 [7]: 0.201 mg/L
MPI [7]: 100
IC50 (neutralisation, TZM.bl cells) [8]: 0.221 mg/L
IC80 (neutralisation, TZM.bl cells) [8]: 1.04 mg/L
MPI [8]: 100
IC50 (neutralisation, TZM.bl cells) [9]: 0.158 mg/L
IC80 (neutralisation, TZM.bl cells) [9]: 0.509 mg/L
MPI [9]: 100
IC50 (neutralisation, TZM.bl cells) [10]: 0.025 mg/L
IC80 (neutralisation, TZM.bl cells) [10]: 0.069 mg/L
MPI [10]: 100
IC50 (neutralisation, TZM.bl cells) [11]: 0.716 mg/L
IC80 (neutralisation, TZM.bl cells) [11]: 3.73 mg/L
MPI [11]: 99
IC50 (neutralisation, TZM.bl cells) [12]: 0.047 mg/L
IC80 (neutralisation, TZM.bl cells) [12]: 0.222 mg/L
MPI [12]: 100
IC50 [13]: 23.2 mg/L
IC80 [13]: 47.9 mg/L
MPI [13]: 82
IC50 (neutralisation, TZM.bl cells) [14]: 0.031 mg/L
IC80 (neutralisation, TZM.bl cells) [14]: 0.113 mg/L
MPI [14]: 100
IC50 (neutralisation, TZM.bl cells) [15]: 11.7 mg/L
IC80 (neutralisation, TZM.bl cells) [15]: 33.2 mg/L
MPI [15]: 92
IC50 (neutralisation, TZM.bl cells) [16]: 2 mg/L
IC80 (neutralisation, TZM.bl cells) [16]: 14.7 mg/L
MPI [16]: 96
IC50 (neutralisation, TZM.bl cells) [17]: 0.229 mg/L
IC80 (neutralisation, TZM.bl cells) [17]: 0.992 mg/L
MPI [17]: 100
IC50 (neutralisation, TZM.bl cells) [18]: 18.4 mg/L
IC80 (neutralisation, TZM.bl cells) [18]: 38.9 mg/L
MPI [18]: 91
IC50 (neutralisation, TZM.bl cells) [19]: 21.6 mg/L
IC80 (neutralisation, TZM.bl cells) [19]: > 50 mg/L
MPI [19]: 80
IC50 [20]: 0.125 mg/L
IC80 [20]: 0.39 mg/L
MPI [20]: 100
IC50 [21]: 0.167 mg/L
IC80 [21]: 0.579 mg/L
MPI [21]: 100
IC50 (neutralisation, TZM.bl cells) [22]: 0.108 mg/L
IC80 (neutralisation, TZM.bl cells) [22]: 0.645 mg/L
MPI [22]: 100
IC50 [23]: 0.085 mg/L
IC80 [23]: 0.592 mg/L
MPI [23]: 100
IC50 [24]: 0.038 mg/L
IC80 [24]: 0.236 mg/L
MPI [24]: 100
IC50 [25]: 0.114 mg/L
IC80 [25]: 0.765 mg/L
MPI [25]: 100
IC50 [26]: 0.024 mg/L
IC80 [26]: 0.067 mg/L
MPI [26]: 100
IC50 [27]: 0.043 mg/L
IC80 [27]: 0.147 mg/L
MPI [27]: 100
IC50 [28]: 0.014 mg/L
IC80 [28]: 0.061 mg/L
MPI [28]: 100
IC50 [29]: 0.092 mg/L
IC80 [29]: 0.313 mg/L
MPI [29]: 100
IC50 [30]: 0.011 mg/L
IC80 [30]: 0.031 mg/L
MPI [30]: 100
IC50 [31]: 0.048 mg/L
IC80 [31]: 0.282 mg/L
MPI [31]: 100
IC50 [32]: 0.178 mg/L
IC80 [32]: 0.62 mg/L
MPI [32]: 100
IC50 [33]: 0.053 mg/L
IC80 [33]: 0.262 mg/L
MPI [33]: 100
IC50 [34]: 22.3 mg/L
IC80 [34]: > 50 mg/L
MPI [34]: 75
IC50 [35]: 0.016 mg/L
IC80 [35]: 0.06 mg/L
MPI [35]: 100
IC50 [36]: 0.116 mg/L
IC80 [36]: 0.338 mg/L
MPI [36]: 100
IC50 (neutralisation, TZM.bl cells) [37]: 0.081 mg/L
IC80 (neutralisation, TZM.bl cells) [37]: 0.273 mg/L
MPI [37]: 100

— patent US20240117018A1
